# According to article PMC3143072, “DNA binding activities of the Herves transposase from the mosquito Anopheles gambiae”:
# T1: Herves transposase (Anopheles gambiae, UniProt Q5QIT5 1-603)
# T1 sequence: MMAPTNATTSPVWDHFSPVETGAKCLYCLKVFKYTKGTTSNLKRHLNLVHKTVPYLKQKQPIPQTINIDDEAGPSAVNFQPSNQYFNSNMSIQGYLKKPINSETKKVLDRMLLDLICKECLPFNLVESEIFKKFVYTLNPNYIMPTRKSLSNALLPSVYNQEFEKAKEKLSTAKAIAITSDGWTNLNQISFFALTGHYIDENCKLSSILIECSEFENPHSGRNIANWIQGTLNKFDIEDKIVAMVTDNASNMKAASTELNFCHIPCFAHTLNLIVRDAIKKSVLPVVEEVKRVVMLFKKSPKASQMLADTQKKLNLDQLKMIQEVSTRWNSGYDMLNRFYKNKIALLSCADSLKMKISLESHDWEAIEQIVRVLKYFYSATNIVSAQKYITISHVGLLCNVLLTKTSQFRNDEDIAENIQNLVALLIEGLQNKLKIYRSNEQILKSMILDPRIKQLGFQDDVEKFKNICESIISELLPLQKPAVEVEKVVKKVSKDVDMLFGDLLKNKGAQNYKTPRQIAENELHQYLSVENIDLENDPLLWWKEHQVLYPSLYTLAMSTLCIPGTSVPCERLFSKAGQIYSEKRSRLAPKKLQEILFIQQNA
# Tests used:
# [1] = molecular target: T1, Herves transposase; assay: EMSA; two complexes; EMSA: 16 mM Tris pH 8.0, 150 mM NaCl, 1 mM DTT, 0.25% Triton X, 0.2 ug BSA, 0.4 ug T3 ss oligo, 0.5 ug poly(dI-dC), 4 C; 100 nM DNA, 850 nM transposase; same binding conditions for DNase I; conditions: protein: recombinant; tags: His tag (pBAD myc/HisA vector); label: 32P as probe
# [2] = molecular target: T1, Herves transposase; assay: competition; vs Herves-L 1-100 probe, partial compared with bp 1-100; 200-fold; EMSA: 16 mM Tris pH 8.0, 150 mM NaCl, 1 mM DTT, 0.25% Triton X, 0.2 ug BSA, 0.4 ug T3 ss oligo, 0.5 ug poly(dI-dC), 4 C; 100 nM DNA, 850 nM transposase; same binding conditions for DNase I; conditions: protein: recombinant; tags: His tag (pBAD myc/HisA vector); label: 32P as probe
# [3] = molecular target: T1, Herves transposase; assay: competition; vs Herves-L 1-100 probe; 200-fold; EMSA: 16 mM Tris pH 8.0, 150 mM NaCl, 1 mM DTT, 0.25% Triton X, 0.2 ug BSA, 0.4 ug T3 ss oligo, 0.5 ug poly(dI-dC), 4 C; 100 nM DNA, 850 nM transposase; same binding conditions for DNase I; conditions: protein: recombinant; tags: His tag (pBAD myc/HisA vector)
# [4] = molecular target: T1, Herves transposase; assay: EMSA; one complex; EMSA: 16 mM Tris pH 8.0, 150 mM NaCl, 1 mM DTT, 0.25% Triton X, 0.2 ug BSA, 0.4 ug T3 ss oligo, 0.5 ug poly(dI-dC), 4 C; 100 nM DNA, 850 nM transposase; same binding conditions for DNase I; conditions: protein: recombinant; tags: His tag (pBAD myc/HisA vector); label: 32P as probe
# [5] = molecular target: T1, Herves transposase; assay: EMSA; EMSA: 16 mM Tris pH 8.0, 150 mM NaCl, 1 mM DTT, 0.25% Triton X, 0.2 ug BSA, 0.4 ug T3 ss oligo, 0.5 ug poly(dI-dC), 4 C; 100 nM DNA, 850 nM transposase; same binding conditions for DNase I; conditions: protein: recombinant; tags: His tag (pBAD myc/HisA vector); label: 32P as probe
# [6] = molecular target: T1, Herves transposase; assay: EMSA; two complexes; competed by self; EMSA: 16 mM Tris pH 8.0, 150 mM NaCl, 1 mM DTT, 0.25% Triton X, 0.2 ug BSA, 0.4 ug T3 ss oligo, 0.5 ug poly(dI-dC), 4 C; 100 nM DNA, 850 nM transposase; same binding conditions for DNase I; conditions: protein: recombinant; tags: His tag (pBAD myc/HisA vector); label: 32P
# [7] = molecular target: T1, Herves transposase; assay: EMSA; three complexes; competed by unlabeled bp 1-100; EMSA: 16 mM Tris pH 8.0, 150 mM NaCl, 1 mM DTT, 0.25% Triton X, 0.2 ug BSA, 0.4 ug T3 ss oligo, 0.5 ug poly(dI-dC), 4 C; 100 nM DNA, 850 nM transposase; same binding conditions for DNase I; conditions: protein: recombinant; tags: His tag (pBAD myc/HisA vector); label: 32P
binder,measurement,setting,value
Herves-R bp 1-30 (dsDNA) DNA 1: TAGGGTTGGGCAATTCGATTCATTACCATG DNA 2: CATGGTAATGAATCGAATTGCCCAACCCTA,binding result,[1],binds
Herves-L bp 28-60 (dsDNA) DNA 1: GTACGATTCATTCAATTCATCCTAAAGAACGAA DNA 2: TTCGTTCTTTAGGATGAATTGAATGAATCGTAC,binding result,[2],binds
Herves-L bp 1-30 (dsDNA) DNA 1: TAGAGTTGTGCCTCAAGAACCAGAACTGTA DNA 2: TACAGTTCTGGTTCTTGAGGCACAACTCTA,binding result,[3],no binding
Herves-R bp 15-45 (dsDNA) DNA 1: TCGATTCATTACCATGAACGTGAATTTACCG DNA 2: CGGTAAATTCACGTTCATGGTAATGAATCGA,binding result,[4],binds
(CGATTCAT)4 (dsDNA) DNA 1: CGATTCATCGATTCATCGATTCATCGATTCAT DNA 2: ATGAATCGATGAATCGATGAATCGATGAATCG,binding result,[1],binds
Herves-R bp 46-75 (dsDNA) DNA 1: GTTCTTTCATTAACATGAACTGAGCGTGAA DNA 2: TTCACGCTCAGTTCATGTTAATGAAAGAAC,binding result,[5],no binding
Herves-R bp 61-90 (dsDNA) DNA 1: TGAACTGAGCGTGAATCGCGATTCAATCGT DNA 2: ACGATTGAATCGCGATTCACGCTCAGTTCA,binding result,[4],binds
Herves-R bp 1-100 (dsDNA) DNA 1: TTGACGTGAACGATTGAATCGCGATTCACGCTCAGTTCATGTTAATGAAAGAACCGGTAAATTCACGTTCATGGTAATGAATCGAATTGCCCAACCCTA DNA 2: TAGGGTTGGGCAATTCGATTCATTACCATGAACGTGAATTTACCGGTTCTTTCATTAACATGAACTGAGCGTGAATCGCGATTCAATCGTTCACGTCAA,binding result,[6],binds
Herves-L bp 12-48 (dsDNA) DNA 1: CTCAAGAACCAGAACTGTACGATTCATTCAATTCATC DNA 2: GATGAATTGAATGAATCGTACAGTTCTGGTTCTTGAG,binding result,[1],binds
Herves-L bp 1-100 (dsDNA) DNA 1: TAGAGTTGTGCCTCAAGAACCAGAACTGTACGATTCATTCAATTCATCCTAAAGAACGAATGACCTACGTTCATCTAATCAACGTTCATCGATTCTTTAT DNA 2: ATAAAGAATCGATGAACGTTGATTAGATGAACGTAGGTCATTCGTTCTTTAGGATGAATTGAATGAATCGTACAGTTCTGGTTCTTGAGGCACAACTCTA,binding result,[7],binds
